# Source: patent EP3911180B1, “PAENIBACILLUS WYNNII BETA-GALACTOSIDASE FOR THE PRODUCTION OF LACTOSE-DEPLETED AND GOS-ENRICHTED DAIRY PRODUCTS” (Universität Hohenheim, priority 2019, dated 2020)
# B1: P. wynnii beta-galactosidase (SEQ ID NO: 1) (Paenibacillus wynnii) (protein)
# chain: MRKKLVYSPPTNGYPEWNNNPECFQINRMDAHATWIPFNTTEDALLGDPQSSPNYLSLNGMWKFAYAETPDQRIRNFFEKNYDCSSWAELNVPSHWQMHGYDYPQYTNVRYPWSEREPELKPPFAPTQYNPVGSYVRTFSVPEDWSGKPVFISFQGVESAFYVWLNGELVGYSEDTFTPAEFDLTPYLIPGDNKLAVEVYRWCDASWLEDQDFWRLSGIFRDVYLYTTPEAHIYDFFVRTELDEQYRHAELQLDVKLMDYFERTAEAVIVHAQLYDHDQNAIFDQPLSQTVYFNSASTQTLQFSSSIIDPLKWSAEHPNLYTLVLSLHHVDGELMEAVSCRVGFRTFELKDGLMKINGKRIVFKGVNRHEFSCDTGRSIDVDDMVRDILLMKAHNINAVRTSHYPNQTIWYDLCDQYGLYVIDETNLETHGSWSYGQTDLGGNTVPGSRPEWRANVLDRCNSMLQRDKNHPSIVIWSLGNESFGGDNFVAMHDFLKKEDPSRLVHYEGLFHYRESDVASDIESTMYISPADVEQYALNDPKKPYILCEYSHAMGNSCGGLHLYWEVFEKYDILQGAFIWDWIDQAIRLKQADGSMHMAYGGDFGESPHDGNFCGNGLIFADRSVSPKLYEVKKCYQNVKFEAVDLERGIYRVTNQNLFTDLAEYALAWEVSCNGNPVLKGTVDLAVPAGESAEISVPVVDEPNLQSEGEHVLTFSLQLKKSTLWADAGHEVAWEQFLLPTPQFMAGQDQDSVLTSDRGVIVEEQAGRLTVQAADVSLQFSTSSGYLISMQNKGKELLLEPVRPNFWRAVTDNDLGNKHHERCAVWNTAGAGCTLASFESHKNVDGVTVRAKYTVPTVPISSLILEYRIQENGSIEVFEELSPGMGLPEIPEIGLMFIVEDRLDTVSWYGRGPHENYWDRKTGARLGYFSGSVQDQFVPYIRPQECGNKTDVRFASITGGINGSGFRVDGDPVLELNALPWTPAELEANDHIYKLPASNKTVVRVNYKQMGVGGDNSWGATTHPEFTLPADQTYGFRFTIRMV
# Substrate: OC[C@H]1O[C@@H](O[C@H]2[C@H](O)[C@@H](O)C(O)O[C@@H]2CO)[C@H](O)[C@@H](O)[C@H]1O
# Assay: Determination of KM with lactose as substrate
# Format: biochemical, Paenibacillus wynnii
# Settings: 8 °C
# Description: For the substrate solution 400 mM lactose was dissolved in Novo buffer (the composition of which is depicted in Table 4). The beta-galactosidase activity was determined in a thermo shaker in 1.5 mL reaction tubes at 8°C. The enzyme mix and the lactose solution were preincubated at 8 °C for 12 min. To start the enzymatic reaction 100 µL of the enzyme mix were added to 100 µL lactose solution. The reaction was carried out for 5 min at 8 °C. The reaction was stopped by adding 300 µL 1 M HClO4 to the enzyme-substrate-mix. The mix was kept on ice for 5 min before it was centrifuged at 13 000 rcf and 4 °C for 5 min. 160 µL of the supernatant were transferred to 75 µL 2 M KOH to neutralise the solution. The neutralisation step was checked using pH paper and the pH was adjusted if necessary. The solution was kept on ice for another 5 min before it was centrifuged at 13 000 rcf at 4 °C for 5 min. All assays were performed in triplicate. Table 4: Composition of Novo buffer
# The kinetic parameters were determined using the natural substrate lactose. The reaction matrices and conditions were chosen in order to simulate conditions in milk systems. The chosen reaction matrices were Novo buffer (cf. Table 4, above) and milk diluted with Novo buffer. The reaction temperature was 8 °C and the pH value was 6.7.
# For the determination of the KM values of P. wynnii beta-galactosidase lactose concentrations ranged from 0.76 mM to 97.5 mM. In order to obtain different lactose concentrations in milk, milk was diluted with Novo buffer. […] The enzyme activities were measured under initial reaction velocity conditions of the enzyme. The reaction times for the initial velocity of the enzymes were determined in previous experiments. The kinetic parameter KM was analysed using the Enzyme Kinetics Module in SigmaPlot 12.5 (Systat Software, Inc., San Jose, USA).
# In the case of the studies in Novo buffer the enzyme activity decreased again with increasing lactose concentration. […] Table 6: Summary of the determined KM values using the Enzyme Kinetics Module in SigmaPlot 12.5. […]
protein,measurement,setting,value
B1,Km,"other: Novo buffer, pH 6.7, A: evaluation according to Michaelis-Menten, pH 6.7",340 ± 84 µM
same,Km,"other: Novo buffer, pH 6.7, B: evaluation under consideration of substrate inhibition, pH 6.7",520 ± 89 µM
same,Km,other: milk + Novo buffer,630 µM
